Results: publication PMC10602924

Key:
Assay in all cases: EMSA
[1] = target: SerRS T429A (human, UniProt P49591 1-514, T429A)
[2] = target: SerRS WT (human, UniProt P49591 1-514)
[3] = target: SerRS deltaUNE-S (human, UniProt P49591 1-469)
Chain of SerRS deltaUNE-S (P49591 1-469, stated change not applied): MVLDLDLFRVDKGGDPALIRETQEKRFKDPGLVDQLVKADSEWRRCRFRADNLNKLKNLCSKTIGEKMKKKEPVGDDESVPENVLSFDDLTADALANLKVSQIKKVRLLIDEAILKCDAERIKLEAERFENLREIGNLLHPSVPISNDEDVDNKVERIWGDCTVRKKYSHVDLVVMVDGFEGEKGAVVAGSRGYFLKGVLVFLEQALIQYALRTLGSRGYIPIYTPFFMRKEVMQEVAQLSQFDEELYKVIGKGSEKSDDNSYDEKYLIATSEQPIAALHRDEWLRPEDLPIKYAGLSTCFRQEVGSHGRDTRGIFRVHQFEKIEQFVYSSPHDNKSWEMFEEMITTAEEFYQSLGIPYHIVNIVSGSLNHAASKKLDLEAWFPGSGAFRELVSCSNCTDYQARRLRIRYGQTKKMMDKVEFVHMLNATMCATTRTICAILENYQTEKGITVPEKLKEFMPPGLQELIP

Chain of SerRS WT (P49591 whole entry): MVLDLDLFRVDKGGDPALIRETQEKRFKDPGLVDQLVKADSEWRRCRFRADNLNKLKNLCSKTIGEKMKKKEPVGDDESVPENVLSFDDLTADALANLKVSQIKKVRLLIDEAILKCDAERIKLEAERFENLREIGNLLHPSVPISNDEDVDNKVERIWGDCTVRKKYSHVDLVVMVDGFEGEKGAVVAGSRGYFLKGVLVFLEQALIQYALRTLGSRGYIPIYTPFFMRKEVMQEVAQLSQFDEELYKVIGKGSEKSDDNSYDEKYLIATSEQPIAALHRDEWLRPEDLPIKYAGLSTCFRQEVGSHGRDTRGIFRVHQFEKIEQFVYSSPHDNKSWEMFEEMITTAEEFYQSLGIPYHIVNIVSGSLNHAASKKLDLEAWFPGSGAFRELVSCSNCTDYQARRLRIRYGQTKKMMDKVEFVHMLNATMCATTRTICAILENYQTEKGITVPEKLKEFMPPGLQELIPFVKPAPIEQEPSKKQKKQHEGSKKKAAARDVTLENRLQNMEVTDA
Chain of SerRS T429A (P49591 whole entry T429A): as the sequence (P49591 whole entry) above, with T429A counted along it

B1: VEGFA 3'UTR WT RNA (ssRNA)
RNA: UGAGCCGGGCAGGAGGAAGGAGCCUCCCUCAGGGUUUCGGGAACCAGAUCUCUCACCAGGAAAGACUGA
- binding result [1]: binds
- binding result [2]: binds
- binding result [3]: no binding

Binder: UCAAAUGGAGCACCUGUUCCAUAUGUACGA (ssRNA) [MSH2 S612X RNA]
- binding result [2]: binds
